Assay results as given in US20260167721A1 (ABLEXIS, published 2026).

What was measured:
[1] = target: T1, human CD3 (TCR/CD3 complex on the cell surface) (human, UniProt P07766 23-207; P04234 22-171; P09693 23-182); assay: flow cytometry, Pan-T cells, 1 ug/mL
T1 construct: whole, on cells; Native CD3 on human Pan-T cells or Jurkat wild-type cells; also called CD3 on Pan-T cells; CD3 on Jurkat WT cells

[2] = target: T1, human CD3 (TCR/CD3 complex on the cell …); assay: flow cytometry, Pan-T cells, 10 ug/mL
[3] = target: T1, human CD3 (TCR/CD3 complex on the cell …); assay: flow cytometry, Jurkat WT cells, 1 ug/mL
[4] = target: T1, human CD3 (TCR/CD3 complex on the cell …); assay: flow cytometry, Jurkat WT cells, 10 ug/mL
[5] = target: T1, human CD3 (TCR/CD3 complex on the cell …); assay: flow cytometry, Jurkat WT gMFI over Jurkat KO gMFI, 1 ug/mL
[6] = target: T1, human CD3 (TCR/CD3 complex on the cell …); assay: flow cytometry, Jurkat WT gMFI over Jurkat KO gMFI, 10 ug/mL

T1 sequence (P07766 23-207, chain 1 of 3): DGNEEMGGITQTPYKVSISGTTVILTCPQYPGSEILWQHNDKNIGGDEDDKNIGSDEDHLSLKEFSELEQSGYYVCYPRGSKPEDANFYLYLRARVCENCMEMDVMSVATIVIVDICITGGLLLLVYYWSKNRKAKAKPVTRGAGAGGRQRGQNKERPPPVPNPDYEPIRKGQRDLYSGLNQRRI
T1 sequence (P04234 22-171, chain 2 of 3): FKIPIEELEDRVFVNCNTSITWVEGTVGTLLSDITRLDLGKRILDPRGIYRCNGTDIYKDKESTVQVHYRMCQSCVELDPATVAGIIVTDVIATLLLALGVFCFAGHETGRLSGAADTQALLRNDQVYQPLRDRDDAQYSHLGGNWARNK
T1 sequence (P09693 23-182, chain 3 of 3): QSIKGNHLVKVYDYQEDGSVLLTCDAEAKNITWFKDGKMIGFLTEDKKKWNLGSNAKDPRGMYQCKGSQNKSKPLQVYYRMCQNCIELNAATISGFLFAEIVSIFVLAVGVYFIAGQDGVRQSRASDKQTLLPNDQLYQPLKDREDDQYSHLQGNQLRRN

% Positive [1] [%]	gMFI [1] [gMFI]	% Positive [2] [%]	gMFI [2] [gMFI]	gMFI [3] [gMFI]	gMFI [4] [gMFI]	Jurkat WT/KO (Fold) [5] [fold]	Jurkat WT/KO (Fold) [6] [fold]	Binder
66.3	9270	98.5	53000	3890	8450	1.7	3.7	CD3 × CD33-BspAb97 (bispecific antibody) chain 1: SYELTQPPSVSVSPGQTARITCSGDALPKKYAYWYQQKSGQAPVLVIYEDSKRPSGIPERFSGSSSGTMATLTISGAQVEDEADYYCYSTDSSGNHWVFGCGTKLTVLGGGGSGGGGSGGGGSGGGGSEVQLVESGGGLVKPGGSLRLSCAASGFTFSNYYMNWVRQAPGKCLERVSSISSSSNYIYYADSVKGRFTISRDNAKNSLYLQMNSLRAEDTAVYYCARDRRELPLDYWGQGTVVTVSSDKTHTCPPCPAPEFEGGPSVFLFPPKPKDTLMISRTPEVTCVVVDVSHEDPEVKFNWYVDGVEVHNAKTKPREEQYNSTYRVVSVLTVLHQDWLNGKEYKCKVSNKALPASIEKTISKAKGQPREPQVYTLPPCREEMTKNQVSLWCLVKGFYPSDIAVEWESNGQPENNYKTTPPVLDSDGSFFLYSKLTVDKSRWQQGNVFSCSVMHEALHNHYTQKSLSLSPGK chain 2: EVQLVQSGAEVKKPGSSVKVSCKASGYTITDSNIHWVRQAPGQSLEWIGYIYPYNGGTDYNQKFKNRATLTVDNPTNTAYMELSSLRSEDTAFYYCVNGNPWLAYWGQGTLVTVSSASTKGPSVFPLAPSSKSTSGGTAALGCLVKDYFPEPVTVSWNSGALTSGVHTFPAVLQSSGLYSLSSVVTVPSSSLGTQTYICNVNHKPSNTKVDKRVEPKSCDKTHTCPPCPAPEFEGGPSVFLFPPKPKDTLMISRTPEVTCVVVDVSHEDPEVKFNWYVDGVEVHNAKTKPREEQYNSTYRVVSVLTVLHQDWLNGKEYKCKVSNKALPASIEKTISKAKGQPREPQVCTLPPSREEMTKNQVSLSCAVKGFYPSDIAVEWESNGQPENNYKTTPPVLDSDGSFFLVSKLTVDKSRWQQGNVFSCSVMHEALHNRFTQKSLSLSPGK chain 3: DIQLTQSPSTLSASVGDRVTITCRASESLDNYGIRFLTWFQQKPGKAPKLLMYAASNQGSGVPSRFSGSGSGTEFTLTISSLQPDDFATYYCQQTKEVPWSFGQGTKVEVKRTVAAPSVFIFPPSDEQLKSGTASVVCLLNNFYPREAKVQWKVDNALQSGNSQESVTEQDSKDSTYSLSSTLTLSKADYEKHKVYACEVTHQGLSSPVTKSFNRGEC
99.5	240000	99.5	348000	30000	39600	9.3	11.9	CD3 × CD33-BspAb100 (bispecific antibody, KiH heterodimer) scFv-Fc: EVQLVESGGGLVKPGGSLRLSCAASGFTFSNYYMNWVRQAPGKCLERVSSISSSSNYIYYADSVKGRFTISRDNAKNSLYLQMNSLRAEDTAVYYCARDRRELPLDYWGQGTVVTVSSGGGGSGGGGSGGGGSGGGGSSYELTQPPSVSVSPGQTARITCSGDALPKKYAYWYQQKSGQAPVLVIYEDSKRPSGIPERFSGSSSGTMATLTISGAQVEDEADYYCYSTDSSGNHWVFGCGTKLTVLGGGGSDKTHTCPPCPAPEFEGGPSVFLFPPKPKDTLMISRTPEVTCVVVDVSHEDPEVKFNWYVDGVEVHNAKTKPREEQYNSTYRVVSVLTVLHQDWLNGKEYKCKVSNKALPASIEKTISKAKGQPREPQVYTLPPCREEMTKNQVSLWCLVKGFYPSDIAVEWESNGQPENNYKTTPPVLDSDGSFFLYSKLTVDKSRWQQGNVFSCSVMHEALHNHYTQKSLSLSPGK heavy: EVQLVQSGAEVKKPGSSVKVSCKASGYTITDSNIHWVRQAPGQSLEWIGYIYPYNGGTDYNQKFKNRATLTVDNPTNTAYMELSSLRSEDTAFYYCVNGNPWLAYWGQGTLVTVSSASTKGPSVFPLAPSSKSTSGGTAALGCLVKDYFPEPVTVSWNSGALTSGVHTFPAVLQSSGLYSLSSVVTVPSSSLGTQTYICNVNHKPSNTKVDKRVEPKSCDKTHTCPPCPAPEFEGGPSVFLFPPKPKDTLMISRTPEVTCVVVDVSHEDPEVKFNWYVDGVEVHNAKTKPREEQYNSTYRVVSVLTVLHQDWLNGKEYKCKVSNKALPASIEKTISKAKGQPREPQVCTLPPSREEMTKNQVSLSCAVKGFYPSDIAVEWESNGQPENNYKTTPPVLDSDGSFFLVSKLTVDKSRWQQGNVFSCSVMHEALHNRFTQKSLSLSPGK light: DIQLTQSPSTLSASVGDRVTITCRASESLDNYGIRFLTWFQQKPGKAPKLLMYAASNQGSGVPSRFSGSGSGTEFTLTISSLQPDDFATYYCQQTKEVPWSFGQGTKVEVKRTVAAPSVFIFPPSDEQLKSGTASVVCLLNNFYPREAKVQWKVDNALQSGNSQESVTEQDSKDSTYSLSSTLTLSKADYEKHKVYACEVTHQGLSSPVTKSFNRGEC
1.2	1810	1.5	1830	1660	1670	0.9	1	CD3 × CD33-BspAb99 (bispecific antibody, KiH heterodimer) scFv-Fc: not shown heavy: EVQLVQSGAEVKKPGSSVKVSCKASGYTITDSNIHWVRQAPGQSLEWIGYIYPYNGGTDYNQKFKNRATLTVDNPTNTAYMELSSLRSEDTAFYYCVNGNPWLAYWGQGTLVTVSSASTKGPSVFPLAPSSKSTSGGTAALGCLVKDYFPEPVTVSWNSGALTSGVHTFPAVLQSSGLYSLSSVVTVPSSSLGTQTYICNVNHKPSNTKVDKRVEPKSCDKTHTCPPCPAPEFEGGPSVFLFPPKPKDTLMISRTPEVTCVVVDVSHEDPEVKFNWYVDGVEVHNAKTKPREEQYNSTYRVVSVLTVLHQDWLNGKEYKCKVSNKALPASIEKTISKAKGQPREPQVCTLPPSREEMTKNQVSLSCAVKGFYPSDIAVEWESNGQPENNYKTTPPVLDSDGSFFLVSKLTVDKSRWQQGNVFSCSVMHEALHNRFTQKSLSLSPGK light: DIQLTQSPSTLSASVGDRVTITCRASESLDNYGIRFLTWFQQKPGKAPKLLMYAASNQGSGVPSRFSGSGSGTEFTLTISSLQPDDFATYYCQQTKEVPWSFGQGTKVEVKRTVAAPSVFIFPPSDEQLKSGTASVVCLLNNFYPREAKVQWKVDNALQSGNSQESVTEQDSKDSTYSLSSTLTLSKADYEKHKVYACEVTHQGLSSPVTKSFNRGEC
99.8	197000	99.6	278000	43500	47700	11.2	12.7	CD3 × CD33-BspAb98 (bispecific antibody, KiH heterodimer) scFv-Fc: NFMLTQPHSVSESPGKTVTISCTRSSGSIASNYVQWYQQRPGSSPTTVIYEDNQRPSGVPDRFSGSIDSSSNSASLTISGLKTEDEADYYCQSYDSSNRVFGCGTKLTVLGGGGSGGGGSGGGGSGGGGSEVHLVESGGGLVKPGGSLRLSCAASGFTFSRYSMNWVRQAPGKCLEWVSSISRSSSYIYYADSVKGRFTISRDNAKNSLYLQMNSLRAEDTAVYYCAREPRTLGMDYWGQGILVTVSSGGGGSDKTHTCPPCPAPEFEGGPSVFLFPPKPKDTLMISRTPEVTCVVVDVSHEDPEVKFNWYVDGVEVHNAKTKPREEQYNSTYRVVSVLTVLHQDWLNGKEYKCKVSNKALPASIEKTISKAKGQPREPQVYTLPPCREEMTKNQVSLWCLVKGFYPSDIAVEWESNGQPENNYKTTPPVLDSDGSFFLYSKLTVDKSRWQQGNVFSCSVMHEALHNHYTQKSLSLSPGK heavy: EVQLVQSGAEVKKPGSSVKVSCKASGYTITDSNIHWVRQAPGQSLEWIGYIYPYNGGTDYNQKFKNRATLTVDNPTNTAYMELSSLRSEDTAFYYCVNGNPWLAYWGQGTLVTVSSASTKGPSVFPLAPSSKSTSGGTAALGCLVKDYFPEPVTVSWNSGALTSGVHTFPAVLQSSGLYSLSSVVTVPSSSLGTQTYICNVNHKPSNTKVDKRVEPKSCDKTHTCPPCPAPEFEGGPSVFLFPPKPKDTLMISRTPEVTCVVVDVSHEDPEVKFNWYVDGVEVHNAKTKPREEQYNSTYRVVSVLTVLHQDWLNGKEYKCKVSNKALPASIEKTISKAKGQPREPQVCTLPPSREEMTKNQVSLSCAVKGFYPSDIAVEWESNGQPENNYKTTPPVLDSDGSFFLVSKLTVDKSRWQQGNVFSCSVMHEALHNRFTQKSLSLSPGK light: DIQLTQSPSTLSASVGDRVTITCRASESLDNYGIRFLTWFQQKPGKAPKLLMYAASNQGSGVPSRFSGSGSGTEFTLTISSLQPDDFATYYCQQTKEVPWSFGQGTKVEVKRTVAAPSVFIFPPSDEQLKSGTASVVCLLNNFYPREAKVQWKVDNALQSGNSQESVTEQDSKDSTYSLSSTLTLSKADYEKHKVYACEVTHQGLSSPVTKSFNRGEC
